Entries after “also recorded” stand apart in the source; their conditions may differ.

In data set [1] the target is T1, GST-Als5 (Candida albicans, UniProt Q5A8T7 20-1327).
T1 construct: source: E. coli BL21, purified (glutathione-agarose); not shown: GST, N-terminal, kept
T1 sequence: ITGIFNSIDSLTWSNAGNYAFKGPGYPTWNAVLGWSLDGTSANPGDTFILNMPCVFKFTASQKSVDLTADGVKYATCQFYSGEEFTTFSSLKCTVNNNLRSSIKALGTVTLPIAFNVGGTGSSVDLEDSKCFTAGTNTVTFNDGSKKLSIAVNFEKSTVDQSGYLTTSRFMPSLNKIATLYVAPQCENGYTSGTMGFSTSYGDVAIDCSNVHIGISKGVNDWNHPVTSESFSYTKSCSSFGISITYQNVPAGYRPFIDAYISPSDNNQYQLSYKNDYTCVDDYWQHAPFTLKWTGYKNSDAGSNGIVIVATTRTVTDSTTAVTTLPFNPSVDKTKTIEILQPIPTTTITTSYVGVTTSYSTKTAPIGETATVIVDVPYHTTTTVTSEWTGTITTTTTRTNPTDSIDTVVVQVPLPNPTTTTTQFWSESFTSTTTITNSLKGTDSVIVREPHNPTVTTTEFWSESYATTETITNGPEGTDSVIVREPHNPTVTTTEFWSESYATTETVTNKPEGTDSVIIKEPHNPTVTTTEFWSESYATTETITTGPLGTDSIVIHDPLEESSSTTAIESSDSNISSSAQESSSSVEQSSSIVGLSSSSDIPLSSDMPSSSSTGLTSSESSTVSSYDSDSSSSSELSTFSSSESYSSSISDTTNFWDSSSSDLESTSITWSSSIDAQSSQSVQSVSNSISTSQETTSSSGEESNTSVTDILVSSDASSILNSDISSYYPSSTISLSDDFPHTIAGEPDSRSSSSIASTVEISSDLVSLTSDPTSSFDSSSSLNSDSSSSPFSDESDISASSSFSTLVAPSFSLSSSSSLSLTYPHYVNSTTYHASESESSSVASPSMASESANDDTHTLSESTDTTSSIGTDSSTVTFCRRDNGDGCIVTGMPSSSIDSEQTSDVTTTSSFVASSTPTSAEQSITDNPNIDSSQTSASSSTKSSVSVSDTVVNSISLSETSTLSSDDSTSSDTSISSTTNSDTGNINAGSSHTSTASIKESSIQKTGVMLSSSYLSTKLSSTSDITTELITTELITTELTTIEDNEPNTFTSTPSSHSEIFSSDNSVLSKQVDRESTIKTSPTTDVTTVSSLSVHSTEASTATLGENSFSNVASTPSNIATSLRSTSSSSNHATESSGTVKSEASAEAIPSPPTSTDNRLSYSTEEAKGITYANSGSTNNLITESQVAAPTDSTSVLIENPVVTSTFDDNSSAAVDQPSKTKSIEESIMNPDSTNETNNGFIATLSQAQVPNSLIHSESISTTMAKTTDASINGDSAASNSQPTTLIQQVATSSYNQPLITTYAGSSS
Kind of data set: other fluorescence titration. Particulars: both partners purified.

The target in data set [2] is T1, GST-Als5. Kind of data set: other fluorescence titration; tryptophan fluorescence of 0.02 mg/ml protein, peptide titrated in; one-site saturation model; 42 °C. Particulars: both partners purified.
In data set [3] the target is T2, GST-Als5-SS (Candida albicans, UniProt Q5A8T7 20-1326, N-terminal GST tag (pGEX-6P-2) not cleaved, omitted here; expressed in E. coli, unglycosylated. The 4044 bp insert implies the full ORF, including the N-terminal secretion signal, although the figure). The data set can be described thus: other fluorescence titration; van't Hoff plots of the association constants from the fluorescence titrations at different temperatures; ΔH° from the slope. Particulars: both partners purified.

For data set [4], the target named is T1, GST-Als5. The data set is described as above. The note with it: both partners purified.
Data set [5] addresses T2, GST-Als5-SS. The data set can be described thus: other fluorescence titration; tryptophan fluorescence of 0.02 mg/ml protein, peptide titrated in; one-site saturation model; 52 °C (secondary structure of both proteins mildly perturbed at this temperature). The note with it: both partners purified.
Data set [6] addresses T1, GST-Als5. Described as above. The note with it: both partners purified.
Data set [7] is described as follows: Aggregation by transmission electron microscopy. It counts as physicochemical. The note with it: 37 °C, 2 weeks; 0.4 µM / 0.09 mg/ml (method). As to the method:
Transmission Electron Microscopy (TEM)
TEM studies were carried out on a JEOL 2100F. The proteins (0.09 mg/ml) were incubated at 37 °C for 2 weeks prior to the measurements. The proteins were spotted on a carbon-coated copper grid and positively stained with 2% uranyl acetate. The sample was then dried and examined by TEM using a 210 kV accelerating voltage.
Figure 5 Transmission electron microscope images showing aggregation by GST-Als5. […] The scale bar in each panel represents 100 nm. Left panel: 10,000X magnification. Right panel: 25,000X magnification.
(A) Prediction of β-aggregation potential for the GPI anchor attachment signal sequence (SS). The prediction of β-aggregation potential for the SS was done using TANGO (residues 1328–1347). Also shown is the propensity for α-helix, β-turn and β-sheet formation in the unfolded polypeptide chain as predicted by TANGO. […] (B). Transmission electron microscope images showing aggregation by SS and SS in the presence of GST-Als5. The samples, SS (40.0 µM), GST-Als5 (0.4 µM) and GST-Als5 (0.4 µM) + SS (40.0 µM) were incubated as 37 °C for two days before TEM images were recorded.

By Kd is commonly meant the equilibrium constant for the complex coming apart. For AYKSLMT (source: synthetic peptide (USV Ltd.)), the Kd in data set [1] came to 13 nM; in data set [2] it was 9 nM; in data set [5] it was 2 nM; in data set [6], 12 nM. Also, the values for the dH in data set [3] and in data set [4] were 18.6 kcal/mol and -0.803 kcal/mol, respectively.

B1: GST-Als5-SS: GST fusion of Als5 with the GPI-anchor attachment signal sequence, expressed in E. coli (protein)
chain: ITGIFNSIDSLTWSNAGNYAFKGPGYPTWNAVLGWSLDGTSANPGDTFILNMPCVFKFTASQKSVDLTADGVKYATCQFYSGEEFTTFSSLKCTVNNNLRSSIKALGTVTLPIAFNVGGTGSSVDLEDSKCFTAGTNTVTFNDGSKKLSIAVNFEKSTVDQSGYLTTSRFMPSLNKIATLYVAPQCENGYTSGTMGFSTSYGDVAIDCSNVHIGISKGVNDWNHPVTSESFSYTKSCSSFGISITYQNVPAGYRPFIDAYISPSDNNQYQLSYKNDYTCVDDYWQHAPFTLKWTGYKNSDAGSNGIVIVATTRTVTDSTTAVTTLPFNPSVDKTKTIEILQPIPTTTITTSYVGVTTSYSTKTAPIGETATVIVDVPYHTTTTVTSEWTGTITTTTTRTNPTDSIDTVVVQVPLPNPTTTTTQFWSESFTSTTTITNSLKGTDSVIVREPHNPTVTTTEFWSESYATTETITNGPEGTDSVIVREPHNPTVTTTEFWSESYATTETVTNKPEGTDSVIIKEPHNPTVTTTEFWSESYATTETITTGPLGTDSIVIHDPLEESSSTTAIESSDSNISSSAQESSSSVEQSSSIVGLSSSSDIPLSSDMPSSSSTGLTSSESSTVSSYDSDSSSSSELSTFSSSESYSSSISDTTNFWDSSSSDLESTSITWSSSIDAQSSQSVQSVSNSISTSQETTSSSGEESNTSVTDILVSSDASSILNSDISSYYPSSTISLSDDFPHTIAGEPDSRSSSSIASTVEISSDLVSLTSDPTSSFDSSSSLNSDSSSSPFSDESDISASSSFSTLVAPSFSLSSSSSLSLTYPHYVNSTTYHASESESSSVASPSMASESANDDTHTLSESTDTTSSIGTDSSTVTFCRRDNGDGCIVTGMPSSSIDSEQTSDVTTTSSFVASSTPTSAEQSITDNPNIDSSQTSASSSTKSSVSVSDTVVNSISLSETSTLSSDDSTSSDTSISSTTNSDTGNINAGSSHTSTASIKESSIQKTGVMLSSSYLSTKLSSTSDITTELITTELITTELTTIEDNEPNTFTSTPSSHSEIFSSDNSVLSKQVDRESTIKTSPTTDVTTVSSLSVHSTEASTATLGENSFSNVASTPSNIATSLRSTSSSSNHATESSGTVKSEASAEAIPSPPTSTDNRLSYSTEEAKGITYANSGSTNNLITESQVAAPTDSTSVLIENPVVTSTFDDNSSAAVDQPSKTKSIEESIMNPDSTNETNNGFIATLSQAQVPNSLIHSESISTTMAKTTDASINGDSAASNSQPTTLIQQVATSSYNQPLITTYAGSS
modifications: left off: GST, N-terminal, kept
B1: the “aggregation (in words)” value in data set [7] is “showed very poor aggregation; also recorded: showed no propensity for aggregation”.

Source of the values: paper PMC3324464, “The GPI Anchor Signal Sequence Dictates the Folding and Functionality of the Als5 Adhesin from Candida albicans” (PLoS ONE, 2012).
